In CN113929781A (MABWELL SHANGHAI BIOTECHNOLOGY CO LTD; JIANGSU MAIWEIKANG …, dated 2022):

How the values were obtained:
人PD-1-hFc [1] = target: T1, 人PD-1-hFc (human, UniProt Q15116 21-167); experiment: competition ELISA, PD-1-hFc coated, competitor PD-L1-mFc at 1 μg/mL
T1 construct: range 21-167; also called 重组人PD-1; Lot 20180329; not shown: human Fc (hFc)

人PD-1-hFc [2] = target: T1, 人PD-1-hFc; experiment: competition ELISA, PD-1-hFc coated, competitor PD-L2-hFc-Biotin at 2 μg/mL

T1 sequence (Q15116 21-167 limits assumed, form in doubt): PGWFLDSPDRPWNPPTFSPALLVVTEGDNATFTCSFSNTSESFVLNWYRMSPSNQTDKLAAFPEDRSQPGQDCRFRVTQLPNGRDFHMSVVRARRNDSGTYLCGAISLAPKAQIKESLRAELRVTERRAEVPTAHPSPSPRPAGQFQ

IC50 (人PD-1-hFc [1]): 1.4 nM
IC50 (人PD-1-hFc [2]): 1.2 nM
B1: h317 (antibody, V domains shown)
VH: EVQLVESGGGLVKPGGSLRLSCAASGFTFSSYDMSWVRQAPGKGLEWVATISGGGSYTYYPDSVKGRFTISRDNAKNSLYLQMNSLRAEDTAVYYCASPDSSGVAYWGQGTLVTVSS
VL: DIVMTQSPLSLPVTPGEPASITCKASQDVETVVAWYLQKPGQSPRLLIYWASTRHTGVPDRFSGSGSGTDFTLKISRVEAEDVGVYYCQQYSRYPWTFGQGTKL
